Source: patent publication US12655441B2, “PPO polypeptides tolerant to PPO-inhibiting herbicides and use thereof” (QINGDAO KINGAGROOT CHEMICAL COMPOUND CO., LTD., priority 2021, dated 2026)

Columns and labels:
[1] = tested on: PPO-deficient Escherichia coli (ΔhemG); test: PPO-deficient E. coli (ΔhemG) transformed by rice OsPPO1 mutant genes, growth on LB medium containing herbicide; conditions: 500 nM compound A
[2] = tested on: Arabidopsis thaliana; test: Herbicide resistance test of Arabidopsis thaliana seeds overexpressing crop PPO1 WT or mutant on MS medium; format: in vivo; conditions: overexpressed in Arabidopsis thaliana seed
Experimental: 1) Sowing: plump and vernalized wild-type Arabidopsis thaliana seeds were selected, treated with 75% alcohol for 1 minute, disinfected with 10% NaClO for 6 minutes, and washed with sterile water for 5 to 6 times. After the sterilization was completed, the seeds were placed on a MS medium plate for one week, then transplanted to sterilized nutrient soil (nutrient soil:vermiculite=1:1) and cultured in a greenhouse at (25±2) ° C. with a photoperiod of 16 h/8 h (light/dark).
4) Infestation of Arabidopsis thaliana inflorescences: the uninfected Arabidopsis thaliana with good growth state and lush inflorescences were selected for infection and their fruit pods were cut off from the plants by scissors prior to transformation. The Arabidopsis thaliana inflorescences were dipped in the prepared infection solution for 0.5 to 1 minute. Then the infected Arabidopsis thaliana seedlings were placed in dark and humid conditions for 24 hours. After one week, the infection was repeated.
After the transformation of dipped Arabidopsis thaliana inflorescences, Arabidopsis thaliana TO-generation seeds were collected and sowed on a resistant MS plate containing 30 mg/L hygromycin to screen positive plants.
The obtained overexpressed mutant and wild-type Arabidopsis thaliana seeds of different crops were tested for resistance on a MS medium (petri dish) containing different concentrations of PPO-inhibiting herbicidal compounds, as shown in FIG. 12-23.

[3] = tested on: Huaidao No. 5 rice seedlings; format: in vivo
Experimental: Rice seeds were peeled, washed with sterile water as many times as needed until the washing water became clear. Then the seeds were disinfected with 70% alcohol for 30 seconds and then with 5% sodium hypochlorite. The seeds were cultivated in a horizontal shaker for 20 minutes, disinfected with sodium hypochlorite and washed with sterile water for 5 times, placed on a sterile absorbent paper to air-dry the surface moisture of the seeds, and inoculated in an induction medium to cultivate the callus at 28° C. • 4) Infection of rice callus with Agrobacterium: the Huaidao No. 5 callus with a diameter of 3 mm was selected for sub-cultivation for 10 days and the callus was collected into a 50 ml centrifuge tube. […]

[4] = tested on: PPO-deficient Escherichia coli (ΔhemG); test: PPO-deficient E. coli (ΔhemG) transformed by corn ZmPPO1 mutant genes, growth on LB medium containing compound A; format: cell-based; conditions: compound A 5 μM
Experimental: To verify whether the mutation of the PPO1-conserved protein motif LLLNYI in other plants could also confer resistance to herbicides, the mutation combination of leucine residues at the third position and tyrosine residues at the fifth position in the protein motif LLLNYI was carried out by using the same method as described in the above examples and screened by using of the LB medium containing herbicidal compound A, and the growth inhibition was observed.

[5] = different concentrations of compound A
[6] = different concentrations of flumioxazin
[7] = different concentrations of saflufenacil

| Molecule | tolerance to compound A compared with wild-type Arabidopsis thaliana [2, 5] | tolerance to flumioxazin compared with wild-type Arabidopsis thaliana [2, 6] | tolerance to saflufenacil compared with wild-type Arabidopsis thaliana [2, 7] | growth of ΔhemG transformant on plates containing compound A, compared with ZmPPO1-WT [4] | further results |
| --- | --- | --- | --- | --- | --- |
| L423I (protein, Amino-acid sequence of PPO1 from rice mutant (OsPPO1 L423I)) MAAAAAAMATATSATAAPPLRIRDAARRTRRRGHVRCAVASGAAEAPAAPGARVSADCVVVGGGISGLCTAQALATKHGVGDVLVTEARARPGGNITTAERAGEGYLWEEGPNSFQPSDPVLTMAVDSGLKDDLVFGDPNAPRFVLWEGKLRPVPSKPGDLPFFDLMSIPGKLRAGLGALGVRAPPPGREESVEDFVRRNLGAEVFERLIEPFCSGVYAGDPSKLSMKAAFGKVWRLEDTGGSIIGGTIKTIQERGKNPKPPRDPRLPTPKGQTVASFRKGLTMLPDAITSRLGSKVKLSWKLTSITKSDNKGYALVYETPEGVVSVQAKTVVMTIPSYVASDILRPLSSDAADALSIFYYPPVAAVTVSYPKEAIRKECLIDGELQGFGQLHPRSQGVETLGTIYSSSLFPNRAPAGRVLLINYIGGSTNTGIVSKTESELVEAVDRDLRKMLINPKAVDPLVLGVRVWPQAIPQFLIGHLDHLEAAKSALGKGGYDGLFLGGNYVAGVALGRCVEGAYESASQISDYLTKYAYK | – | – | – | – | growth of ΔhemG transformant on LB medium containing compound A, compared with the wild type [1]: grew normally |
| OsPPO1 WT: Amino-acid sequence of PPO1 from wild-type rice (protein, Amino-acid sequence of PPO1 from wild-type rice (OsPPO1 WT)) MAAAAAAMATATSATAAPPLRIRDAARRTRRRGHVRCAVASGAAEAPAAPGARVSADCVVVGGGISGLCTAQALATKHGVGDVLVTEARARPGGNITTAERAGEGYLWEEGPNSFQPSDPVLTMAVDSGLKDDLVFGDPNAPRFVLWEGKLRPVPSKPGDLPFFDLMSIPGKLRAGLGALGVRAPPPGREESVEDFVRRNLGAEVFERLIEPFCSGVYAGDPSKLSMKAAFGKVWRLEDTGGSIIGGTIKTIQERGKNPKPPRDPRLPTPKGQTVASFRKGLTMLPDAITSRLGSKVKLSWKLTSITKSDNKGYALVYETPEGVVSVQAKTVVMTIPSYVASDILRPLSSDAADALSIFYYPPVAAVTVSYPKEAIRKECLIDGELQGFGQLHPRSQGVETLGTIYSSSLFPNRAPAGRVLLLNYIGGSTNTGIVSKTESELVEAVDRDLRKMLINPKAVDPLVLGVRVWPQAIPQFLIGHLDHLEAAKSALGKGGYDGLFLGGNYVAGVALGRCVEGAYESASQISDYLTKYAYK | certain level of tolerance | certain level of tolerance | certain level of tolerance | – | tolerance/resistance to compound A compared with wild-type Huaidao No. 5 ([3]; T0 generation rice seedlings, compound A sprayed): certain level of tolerance/resistance; resistance compared with the wild-type control ([3]; compound A 135 g/ha and 270 g/ha): showed no difference |
| L424S/Y426V (protein, Amino-acid sequence of PPO1 form corn mutant (ZmPPO1 L424S/Y426V)) MVAATATATAMATAASPLLNGTRIPARLRHRGLSVRCAAVAGGAAEAPASTGARLSADCVVVGGGISGLCTAQALATRHGVGDVLVTEARARPGGNITTVERPEEGYLWEEGPNSFQPSDPVLTMAVDSGLKDDLVFGDPNAPRFVLWEGKLRPVPSKPADLPFFDLMSIPGKLRAGLGALGIRPPPPGREESVEEFVRRNLGAEVFERLIEPFCSGVYAGDPSKLSMKAAFGKVWRLEETGGSIIGGTIKTIQERSKNPKPPRDARLPKPKGQTVASFRKGLAMLPNAITSSLGSKVKLLWKLTSITKSDDKGYVLEYETPEGVVSVQAKSVIMTIPSYVASNILRPLSSDAADALSRFYYPPVAAVTVSYPKEAIRKECLIDGELQGFGQLHPRSQGVETLGTIYSSSLFPNRAPDGRVLLSNVIGGATNTGIVSKTESELVEAVDRDLRKMLINSTAVDPLVLGVRVWPQAIPQFLVGHLDLLEAAKAALDRGGYDGLFLGGNYVAGVALGRCVEGAYESASQISDFLTKYAYK | – | – | – | grew normally without an inhibition | – |
| L424V/Y426L (protein, Amino-acid sequence of PPO1 from corn mutant (ZmPPO1 L424V/Y426L)) MVAATATATAMATAASPLLNGTRIPARLRHRGLSVRCAAVAGGAAEAPASTGARLSADCVVVGGGISGLCTAQALATRHGVGDVLVTEARARPGGNITTVERPEEGYLWEEGPNSFQPSDPVLTMAVDSGLKDDLVFGDPNAPRFVLWEGKLRPVPSKPADLPFFDLMSIPGKLRAGLGALGIRPPPPGREESVEEFVRRNLGAEVFERLIEPFCSGVYAGDPSKLSMKAAFGKVWRLEETGGSIIGGTIKTIQERSKNPKPPRDARLPKPKGQTVASFRKGLAMLPNAITSSLGSKVKLLWKLTSITKSDDKGYVLEYETPEGVVSVQAKSVIMTIPSYVASNILRPLSSDAADALSRFYYPPVAAVTVSYPKEAIRKECLIDGELQGFGQLHPRSQGVETLGTIYSSSLFPNRAPDGRVLLVNLIGGATNTGIVSKTESELVEAVDRDLRKMLINSTAVDPLVLGVRVWPQAIPQFLVGHLDLLEAAKAALDRGGYDGLFLGGNYVAGVALGRCVEGAYESASQISDFLTKYAYK | – | – | – | grew normally without an inhibition | – |
| ZmPPO1 L424W/Y426L: Amino-acid sequence of PPO1 from corn mutant (protein, Amino-acid sequence of PPO1 from corn mutant (ZmPPO1 L424W/Y426L)) MVAATATATAMATAASPLLNGTRIPARLRHRGLSVRCAAVAGGAAEAPASTGARLSADCVVVGGGISGLCTAQALATRHGVGDVLVTEARARPGGNITTVERPEEGYLWEEGPNSFQPSDPVLTMAVDSGLKDDLVFGDPNAPRFVLWEGKLRPVPSKPADLPFFDLMSIPGKLRAGLGALGIRPPPPGREESVEEFVRRNLGAEVFERLIEPFCSGVYAGDPSKLSMKAAFGKVWRLEETGGSIIGGTIKTIQERSKNPKPPRDARLPKPKGQTVASFRKGLAMLPNAITSSLGSKVKLLWKLTSITKSDDKGYVLEYETPEGVVSVQAKSVIMTIPSYVASNILRPLSSDAADALSRFYYPPVAAVTVSYPKEAIRKECLIDGELQGFGQLHPRSQGVETLGTIYSSSLFPNRAPDGRVLLWNLIGGATNTGIVSKTESELVEAVDRDLRKMLINSTAVDPLVLGVRVWPQAIPQFLVGHLDLLEAAKAALDRGGYDGLFLGGNYVAGVALGRCVEGAYESASQISDFLTKYAYK | certain level of tolerance | certain level of tolerance | certain level of tolerance | grew normally without an inhibition | tolerance to compound A compared with the overexpressed wild-type PPO1 [2, 5]: much higher; tolerance to flumioxazin compared with the overexpressed wild-type PPO1 [2, 6]: much higher; tolerance to saflufenacil compared with the overexpressed wild-type PPO1 [2, 7]: much higher |
